± gives the uncertainty stated by the source.
Assay: protein stability index of a GFP-peptide fusion (yeast GPS) (PSI 1-4); higher = more stable; sorted into four equal gates, so the index is relative within each strain
Procedure, shortened: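 Tiled 17-residue peptides from yeast proteins were fused downstream of GFP on a plasmid that also expresses Cherry, and the pooled library was carried in yeast. Mid-log cultures grown in leucine-free medium were sorted into four equal gates by GFP/Cherry fluorescence ratio. Plasmids from each gate were PCR-amplified and Illumina-sequenced, and reads were assigned to strains by barcodes. Each peptide's protein stability index is the sum, over gates, of the gate's read frequency multiplied by its gate number.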

Sequence | protein stability index (doa10∆) | protein stability index (pdr5∆) | protein stability index (san1∆) | protein stability index (ubr1∆)
PGHEMEDFLDKSYYLNT [AAR2] | 3.29 ± 0.07 | 3.1 ± 0.076 | 2.81 ± 0.065 | 3.11 ± 0.04
WALKSSLNSMTNAKLPN [RGR1] | 2.74 ± 0.092 | 2.77 ± 0.13 | 3.17 ± 0.052 | 2.39 ± 0.05
NAGTNDNSFNELTDNMS [MCD1] | 3.01 ± 0.082 | 3.13 ± 0.076 | 3.15 ± 0.042 | 3.3 ± 0.05
IDMGEDKENVPVEKVKE [DPB4] | 3.41 ± 0.23 | 3.45 ± 0.14 | 3.29 ± 0.21 | 3.67 ± 0.13
KGEMKGSAITGPVGKEC [RPL23A] | 3.19 ± 0.065 | 2.98 ± 0.065 | 3 ± 0.051 | 3 ± 0.044
SNQLISNYAASNSMDRS [SWI1] | 3.11 ± 0.18 | 3.19 ± 0.15 | 3.27 ± 0.12 | 3.09 ± 0.12
YVDPETTYTYQQPNPLQ [ROX3] | 2.33 ± 0.087 | 2.31 ± 0.099 | 2.02 ± 0.12 | 2.86 ± 0.12
AATVRSTIRRLREMVEA [RPL43A] | 3.02 ± 0.084 | 2.8 ± 0.056 | 2.74 ± 0.086 | 3.09 ± 0.064
MSAPTMRSTSILTEHLG [MTW1] | – | – | 2.87 ± 0.24 | –
LPDEKSDAMSIDEEDKD [YCG1] | 3.04 ± 0.17 | 2.36 ± 0.11 | 2.94 ± 0.12 | 3.06 ± 0.074
LKDLNLTVSIKIALMNI [RGR1] | 1.34 ± 0.062 | 1.66 ± 0.066 | 1.73 ± 0.077 | 1.21 ± 0.06
QRDFRKHGAVHMSTYLK [RPL21B] | 2.65 ± 0.048 | 2.42 ± 0.042 | 2.48 ± 0.054 | 2.8 ± 0.038
DEDDDLDEDDVNADDDD [RPB4] | 3.12 ± 0.1 | 3.13 ± 0.086 | 2.09 ± 0.16 | 3 ± 0.11
VEGPKFTIDAKPPISDS [YLR335W/NUP2] | 3.31 ± 0.048 | 3.47 ± 0.058 | 3.29 ± 0.048 | 3.36 ± 0.046
PTETYSDVGGLDKQIEE [RPT5] | 3.36 ± 0.21 | 3.35 ± 0.11 | 3.12 ± 0.068 | 3.21 ± 0.13
RPTEKPVGRELDPISLI [RPN13] | 2.95 ± 0.11 | 3.4 ± 0.12 | 3.33 ± 0.08 | 3.19 ± 0.094
LGGPITKESQPTIEEDL [FAS2] | 3.02 ± 0.21 | 3.19 ± 0.15 | 2.77 ± 0.18 | 2.96 ± 0.069
FRNPTPLLSNYASKINR [RGR1] | 1.44 ± 0.058 | 1.6 ± 0.045 | 1.34 ± 0.11 | 1.66 ± 0.048
LMISPKDEETTEKARLI [RRI2] | 2.8 ± 0.15 | 3.27 ± 0.18 | – | 3.04 ± 0.14
KISFNLRLKLFLYEILS [SRB8] | 1.22 ± 0.066 | 1.26 ± 0.063 | 1.24 ± 0.092 | 1.17 ± 0.048
FGTGQSTFGFNNSAPNN [YJL041W/NSP1] | 3.17 ± 0.046 | 3.29 ± 0.051 | 3.1 ± 0.04 | 3.3 ± 0.036
VSIVKLDTQLITLLPSS [SNF12] | 1.73 ± 0.051 | 1.9 ± 0.05 | 1.95 ± 0.084 | 1.97 ± 0.051
PYEMYKYVHVSEVGNCS [FAS2] | 2.23 ± 0.056 | 2.53 ± 0.062 | 2.11 ± 0.068 | 2.11 ± 0.048

Sequence | protein stability index (doa10∆) | protein stability index (pdr5∆) | protein stability index (san1∆) | protein stability index (ubr1∆)
EVSDFDEMYELTDPMTV [DIB1] | – | 3.48 ± 0.18 | 2.94 ± 0.23 | 2.85 ± 0.26
VTRFDEKQIEELLDNCI [SRB6] | 2.9 ± 0.21 | – | 3.21 ± 0.16 | 3.33 ± 0.12
KTWLRNQEDEKNLQRES [RTT102] | – | – | – | 3.23 ± 0.19
TKEMDEVEEDDEDDDQP [SWI3] | 3.39 ± 0.12 | 3.49 ± 0.068 | 3.48 ± 0.056 | 3.27 ± 0.066
LELLNQLDGFSSDDRVK [RPT5] | 3.07 ± 0.064 | 3.15 ± 0.056 | 2.96 ± 0.051 | 3.03 ± 0.046
FPMKQGVLLPTRIKLLL [RPS6A] | 1.26 ± 0.053 | 1.39 ± 0.053 | 1.17 ± 0.094 | 1.29 ± 0.038
IDGKVIQAGKFDNKSTS [SNF2] | 1.36 ± 0.057 | 1.42 ± 0.064 | 1.9 ± 0.21 | 1.95 ± 0.089
LMMVEKVPDSTYDMVGG [RPT6] | 2.6 ± 0.081 | 2.98 ± 0.071 | 2.84 ± 0.069 | 3.01 ± 0.068
RGHRIRREFKQYSLERN [PRP8] | 2.44 ± 0.17 | 2.61 ± 0.094 | 2.81 ± 0.23 | 1.97 ± 0.12
LGPLFKKIVDDTIMENP [IRR1] | 2.62 ± 0.071 | 2.88 ± 0.066 | 2.44 ± 0.13 | 2.82 ± 0.063
KKDSKPAFSFGISNGSE [YLR335W/NUP2] | 3.16 ± 0.067 | 3.12 ± 0.069 | 3.1 ± 0.044 | 3.15 ± 0.058
RWYQLIATGCKDGRIRI [YGL100W/SEH1] | 2.31 ± 0.065 | 2.26 ± 0.057 | 2.18 ± 0.078 | 2.43 ± 0.044
KQGFVIYRVRVRRGNRK [RPL15A] | 1.17 ± 0.13 | 1.96 ± 0.11 | 1.29 ± 0.26 | 2.26 ± 0.089
NLATKGMVKLNEYPVAD [REC8] | 2.85 ± 0.071 | 1.52 ± 0.05 | 1.46 ± 0.074 | 1.57 ± 0.058
KAASSTRIFQALPRKLR [POP1] | 2.64 ± 0.1 | 3.36 ± 0.15 | 2.76 ± 0.12 | 2.77 ± 0.086
SLWRRTVYSLSQQAGLD [YDL116W/NUP84] | 1.9 ± 0.12 | 2.39 ± 0.28 | 1.78 ± 0.27 | 2.26 ± 0.08
LPSGVLSRGDDEVTIRR [SMC3] | 3.44 ± 0.083 | 3.25 ± 0.12 | 3.2 ± 0.069 | 3.27 ± 0.068
KPLGLDRYGNRYFWLDH [ITC1] | 2.77 ± 0.11 | 3.02 ± 0.13 | 2.85 ± 0.056 | 2.74 ± 0.086
AIKKKEKLLRHVDSLIE [SRB7] | 3.15 ± 0.094 | 2.88 ± 0.12 | 3.2 ± 0.094 | 3.27 ± 0.1
TANATAELNLPTVDEQR [SNF11] | 3.04 ± 0.035 | 3.14 ± 0.032 | 2.99 ± 0.043 | 3.147 ± 0.026
MNVQDRRRLLGPAAAKP [MTR3] | 3.23 ± 0.11 | 3.1 ± 0.11 | 2.96 ± 0.085 | 2.97 ± 0.089
DNTARVIFDASIKDTQN [BRN1] | 2.1 ± 0.078 | 2.06 ± 0.064 | 2.42 ± 0.1 | 2.68 ± 0.048
QLSKAAKAAAALAGGKK [RPS25A] | 1.7 ± 0.057 | 1.86 ± 0.067 | 1.82 ± 0.08 | 1.77 ± 0.047
